Results taken from patent US20110059095A1.
Read-outs that look alike come from different tables or passages of the source.

Tests used:
[1] = target: full length human PAR-2 (human) (UniProt P55085); assay: cell-based or functional assay
[2] = target: full length mouse PAR-2 (mouse) (UniProt P55086); assay: cell-based or functional assay
monkey PAR-2 (monkey) = assay: cell-based or functional assay
[3] = target: C-terminal biotinylated human PAR-2 14-mer peptide SEQ ID NO:884 (…, wild-type) (human); assay: BLI Exp2
C-terminal biotinylated human PAR-2 14-mer peptide SEQ ID NO:884 (…, wild-type) (human), sequence (peptide, as listed by the source): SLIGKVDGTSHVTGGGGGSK

[4] = target: C-terminal biotinylated human PAR-2 14-mer peptide SEQ ID NO:885 (Val-42 to Ala) (human); assay: BLI Exp2
C-terminal biotinylated human PAR-2 14-mer peptide SEQ ID NO:885 (Val-42 to Ala) (human), sequence (peptide, as listed by the source): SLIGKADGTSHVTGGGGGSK

[5] = target: C-terminal biotinylated human PAR-2 14-mer peptide SEQ ID NO:886 (Asp-43 to Ala) (human); assay: BLI Exp2
C-terminal biotinylated human PAR-2 14-mer peptide SEQ ID NO:886 (Asp-43 to Ala) (human), sequence (peptide, as listed by the source): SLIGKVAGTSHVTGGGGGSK

[6] = target: C-terminal biotinylated human PAR-2 14-mer peptide SEQ ID NO:887 (Val-42 and Asp-43 to Ala) (human); assay: BLI Exp2
C-terminal biotinylated human PAR-2 14-mer peptide SEQ ID NO:887 (Val-42 and Asp-43 to Ala) (human), sequence (peptide, as listed by the source): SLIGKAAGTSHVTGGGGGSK

[7] = target: Peptide B (human PAR-2), unbiotinylated (Human); assay: SPR, antibody captured
[8] = target: T1, Peptide B (human PAR-2), C-terminal biotinylated (Human); assay: SPR, peptide immobilized
T1 sequence (peptide, C-terminal biotin via G4S linker): SLIGKVDGTSHVTGGGGGS

[9] = target: T2, Peptide B (human PAR-2), N-terminal biotinylated (Human); assay: SPR, peptide immobilized
T2 sequence (peptide, N-terminal biotin via G4S linker): GGGGSSLIGKVDGTSHVTG

[10] = target: T1, Peptide B (human PAR-2), C-terminal biotinylated (Human); assay: SPR, peptide immobilized; remark: listed apart in the source
[11] = target: full length human PAR-2 (human) (UniProt P55085); assay: cell ELISA, 10 ug/ml antibody

full length human PAR-2 (human), sequence (P55085 26-397 G138A limits assumed): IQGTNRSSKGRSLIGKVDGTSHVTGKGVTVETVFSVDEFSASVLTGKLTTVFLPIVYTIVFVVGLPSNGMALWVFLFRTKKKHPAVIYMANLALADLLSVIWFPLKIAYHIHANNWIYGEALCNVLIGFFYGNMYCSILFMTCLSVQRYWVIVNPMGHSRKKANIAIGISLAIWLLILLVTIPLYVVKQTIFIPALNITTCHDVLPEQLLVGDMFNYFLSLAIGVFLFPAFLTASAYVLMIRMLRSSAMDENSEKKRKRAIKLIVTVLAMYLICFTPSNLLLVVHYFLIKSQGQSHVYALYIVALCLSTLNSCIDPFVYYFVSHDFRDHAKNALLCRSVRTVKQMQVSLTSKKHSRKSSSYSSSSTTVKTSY
Human Kallikrein 5, sequence (Q9Y337 67-293 limits assumed): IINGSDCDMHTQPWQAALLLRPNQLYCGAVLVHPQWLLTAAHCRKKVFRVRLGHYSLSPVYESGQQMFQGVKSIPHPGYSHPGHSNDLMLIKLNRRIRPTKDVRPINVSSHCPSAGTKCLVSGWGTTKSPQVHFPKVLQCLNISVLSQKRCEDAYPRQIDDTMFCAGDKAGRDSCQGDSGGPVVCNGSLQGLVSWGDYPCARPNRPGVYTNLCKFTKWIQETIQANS
full length mouse PAR-2 (mouse), sequence (P55086 other isoform, or with tags, fused parts or gaps limits assumed): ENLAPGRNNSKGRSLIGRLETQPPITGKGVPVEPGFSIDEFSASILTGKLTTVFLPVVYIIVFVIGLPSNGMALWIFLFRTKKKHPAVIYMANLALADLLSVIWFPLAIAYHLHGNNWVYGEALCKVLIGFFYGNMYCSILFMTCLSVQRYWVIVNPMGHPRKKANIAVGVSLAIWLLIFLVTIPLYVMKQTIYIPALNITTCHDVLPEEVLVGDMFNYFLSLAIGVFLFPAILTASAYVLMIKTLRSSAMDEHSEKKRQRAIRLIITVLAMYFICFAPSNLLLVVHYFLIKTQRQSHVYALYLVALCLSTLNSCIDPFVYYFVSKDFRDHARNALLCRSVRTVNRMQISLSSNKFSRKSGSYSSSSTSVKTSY

Bovine Factor Xa (from UniProt P00743 41-492) (enzyme)
EC50 of activator, NF-kB-luciferase [1]: 27.2 nM
EC50 of activator, NF-kB-luciferase [2]: 46.3 nM
EC50 of activator, NF-kB-luciferase (monkey PAR-2 (monkey)): 58.2 nM

Comparator 2, antibody having the heavy and light chain variable regions of the antibody referred to as Sam-11 (Molino et al. 1998)
% Rel Binding [3]: 100%
% Rel T1/2 [3]: 100%
% Rel Binding [4]: 120%
% Rel T1/2 [4]: 159%
% Rel Binding [5]: 88%
% Rel T1/2 [5]: 27%
% Rel Binding [6]: 87%
% Rel T1/2 [6]: 27%

Human Factor Xa (from UniProt P00742 41-488) (enzyme)
EC50 of activator, NF-kB-luciferase [1]: 46.3 nM
EC50 of activator, NF-kB-luciferase [2]: 78.7 nM

Human Kallikrein 5 (from UniProt Q9Y337 67-293) (enzyme)
EC50 of activator, NF-kB-luciferase [1]: 28 nM
EC50 of activator, NF-kB-luciferase (monkey PAR-2 (monkey)): 16.8 nM

Human Pancreatic Trypsin (enzyme)
EC50 of activator, NF-kB-luciferase (monkey PAR-2 (monkey)): 2.4 nM

Non-Specific Control (non-PAR-2 specific control antibody)
IC50, calcium mobilization FLIPR, 100 nM Trypsin [1]: > 1000 nM

Sam11, commercially available mouse monoclonal antibody that binds human PAR-2 (Santa Cruz Biotechnology)
Kd [7]: 149 nM
T1/2 [7]: 0.1 min
Kd [8]: 0.99 nM
T1/2 [8]: 19 min
Kd [9]: 0.279 nM
T1/2 [9]: 32 min
Kd [10]: 0.935 nM
T1/2 [10]: 14 min
A450 ratio (293/D9/hPAR-2rec to 293/D9 cells) [11]: 1.49

Tryptase (Table 22) (enzyme)
EC50 of activator, NF-kB-luciferase [1]: 61.1 nM
